Source: article PMC3431386, “Swi1 Associates with Chromatin through the DDT Domain and Recruits Swi3 to Preserve Genomic Integrity” (PLoS ONE, 2012)

Experiments:
Assay in all cases: pull-down; anti-FLAG M2 agarose beads bound to Swi1-FLAG (purified from swi3Δ cells) mixed with His6-Swi3 in lysis buffer A (50 mM Tris-HCl pH 8.0, 150 mM NaCl, 0.1% NP-40, 10% glycerol), 1 hour at 4°C, washed three times, Western blotting with anti-FLAG or His6 antibody
Details in all cases: both partners purified
Swi1 (750–971)-5FLAG = target: T1, Swi1 (750–971)-5FLAG (S. pombe, UniProt Q9UUM2 750-971)
T1 construct: also called C-terminal Swi1; Swi1 C-terminal region; source: S. pombe swi3Δ cells, nmt1 promoter, purified on anti-FLAG M2 agarose (500 mM NaCl washes); not shown: 5FLAG, C-terminal, kept
T1 sequence (looked up): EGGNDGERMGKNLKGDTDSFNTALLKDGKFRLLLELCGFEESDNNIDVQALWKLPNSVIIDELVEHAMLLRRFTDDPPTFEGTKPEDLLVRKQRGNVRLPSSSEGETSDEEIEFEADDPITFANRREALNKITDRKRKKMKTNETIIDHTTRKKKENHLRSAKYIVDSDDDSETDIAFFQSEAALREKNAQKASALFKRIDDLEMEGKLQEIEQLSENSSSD

Swi1 (250–550)-5FLAG = target: T2, Swi1 (250–550)-5FLAG (S. pombe, UniProt Q9UUM2 250-550)
T2 construct: Swi1, S. pombe, amino acids 250–550 (contains an NLS and the DDT domain); also called DDT domain-containing region; pREP-Swi1(250–550)-5FLAG; source: S. pombe swi3Δ cells, nmt1 promoter, purified on anti-FLAG M2 agarose (500 mM NaCl washes); not shown: 5FLAG, C-terminal, kept
T2 sequence (looked up): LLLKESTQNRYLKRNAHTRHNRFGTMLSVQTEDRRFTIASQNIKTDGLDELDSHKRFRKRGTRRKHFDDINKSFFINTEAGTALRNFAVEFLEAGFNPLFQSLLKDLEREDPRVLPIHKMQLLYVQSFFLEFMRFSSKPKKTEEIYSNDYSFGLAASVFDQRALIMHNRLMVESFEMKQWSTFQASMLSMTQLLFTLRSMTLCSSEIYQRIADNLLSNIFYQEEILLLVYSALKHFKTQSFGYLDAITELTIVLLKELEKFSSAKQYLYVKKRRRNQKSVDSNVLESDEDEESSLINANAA

[1] = target: T3, full-length Swi1 (1–971)-5FLAG (overexpressed from the nmt1 promoter) (S. pombe, UniProt Q9UUM2 1-971)
T3 construct: also called pREP-Swi1-5FLAG; Swi1-FLAG; source: S. pombe swi3Δ cells, nmt1 promoter, purified on anti-FLAG M2 agarose (500 mM NaCl washes); not shown: 5FLAG, C-terminal, kept
T3 sequence (looked up): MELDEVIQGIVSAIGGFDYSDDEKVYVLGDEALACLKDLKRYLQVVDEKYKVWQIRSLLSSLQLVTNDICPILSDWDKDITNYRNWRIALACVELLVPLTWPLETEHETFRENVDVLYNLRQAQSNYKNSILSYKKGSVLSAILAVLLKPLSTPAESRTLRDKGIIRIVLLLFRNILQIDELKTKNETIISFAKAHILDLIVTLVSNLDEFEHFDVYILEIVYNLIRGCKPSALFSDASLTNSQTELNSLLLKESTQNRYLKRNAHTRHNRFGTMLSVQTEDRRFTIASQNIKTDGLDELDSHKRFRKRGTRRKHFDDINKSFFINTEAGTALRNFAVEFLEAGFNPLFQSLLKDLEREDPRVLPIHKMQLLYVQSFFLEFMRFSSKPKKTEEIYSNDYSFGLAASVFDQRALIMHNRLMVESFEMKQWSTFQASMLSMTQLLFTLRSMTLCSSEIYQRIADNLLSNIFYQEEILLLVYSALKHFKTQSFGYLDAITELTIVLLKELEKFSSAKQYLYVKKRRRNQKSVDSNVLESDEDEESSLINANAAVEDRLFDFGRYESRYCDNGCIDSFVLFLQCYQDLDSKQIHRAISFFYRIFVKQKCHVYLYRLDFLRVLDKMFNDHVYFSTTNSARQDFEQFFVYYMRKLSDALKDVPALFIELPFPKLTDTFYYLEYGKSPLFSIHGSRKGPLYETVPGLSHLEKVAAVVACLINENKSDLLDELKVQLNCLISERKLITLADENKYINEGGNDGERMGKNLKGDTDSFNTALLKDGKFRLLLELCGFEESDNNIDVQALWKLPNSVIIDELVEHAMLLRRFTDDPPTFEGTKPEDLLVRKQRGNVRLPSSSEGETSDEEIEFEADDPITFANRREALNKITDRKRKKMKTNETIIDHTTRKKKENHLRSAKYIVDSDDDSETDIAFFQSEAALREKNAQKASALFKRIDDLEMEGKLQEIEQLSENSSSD

Measured: binding result

B1: hexahistidine-tagged Swi3 (His6-Swi3) (natural protein, S. pombe, UniProt O14350 1-181, looked up)
chain: MSTAASDSGVEKLVEENKREEVKKNEEEKEFDLGLEENPDSVKKPRKRLAKFDEERLISENGIPKLRKMMRKVKLKGKGHEAKDLKQLLGMYHIWTHELYPRATFDDSISYLKTLGKHRSVKVRRRGWINEIAVENGSDSNASLFTGPSSNSLVNLTSGDPYVQDTADDAFVAQDNDTQLE
notes: Swi3, S. pombe; swi3 open reading frame in the NdeI/XhoI site of pET28a; also called recombinant Swi3; pET28a-Swi3; source: E. coli BL21(DE3), purified (Ni-NTA)
binds: Swi1 (750–971)-5FLAG | Swi1 (250–550)-5FLAG | [1]
